{
  "source": "paper PMC8395244",
  "about": "“The Oxoglutarate Binding Site and Regulatory Mechanism Are Conserved in Ammonium Transporter Inhibitors GlnKs from Methanococcales” (International Journal of Molecular Sciences, 2021)",
  "proteins": {"B1": {"name": "GlnK1 from Methanocaldococcus jannaschii without a C-terminal tag (MjGlnK1^woT) (natural protein)", "chain": "MKKVEAIIRPEKLEIVKKALSDAGYVGMTVSEVKGRGVQGGIVERYRGREYIVDLIPKVKIELVVKEEDVDNVIDIICENARTGNPGDGKIFVIPVERVVRVRTKEEGKEAL", "notes": "GlnK1, PII-family protein, of Methanocaldococcus jannaschii strain DSM 2661; codon-optimised synthetic gene cloned NdeI/XhoI in pET-24b(+) with a stop codon upstream of the XhoI site, so without a tag; Produced and crystallised without a tag; the crystals came from the gel filtration pool that eluted at 66 mL; also called MjGlnK1^woT-Mg-ATP/2OG; MjGlnK1 with ATP, Mg and 2OG; source: E. coli …"}},
  "target": "the molecule itself",
  "experiment": "crystal structure; sitting drop at 18 °C; crystallised with or without 2 mM ATP, 2 mM 2OG and 2 mM MgCl2; solved by molecular replacement with PDB 2J9D",
  "data": [
    {"protein": "B1", "values": [
      {"measurement": "stoichiometry N", "value": 3}
    ]}
  ]
}
